# B1: SWA: known LC8 binding partner, literature (protein, UniProt P40688 1-548, looked up)
# Protein swallow: MSLQDESFPTDELFDQLNNLSSSGARNTWFAEHHKPAVFERDTAPFLEICYADPDFDADGDVANKSAKTCVSDPVGRDQEDEDDYDEDVDGDDHKLGCEKAPLGSGRSSKAVSYQDIHSAYTKRRFQHVTSKVGQYIAEIQAQDQKRRNVKFAGFQRVNSMPESLTPTLQQVYVHDGDFKVDKNCQTHSNSDSNYNSNSNNSSSSFDRLLAENESLQQKINSLRVEAKRLQGFNEYVQERLDRKTDDFVKMKCNFETLRTELSECQQKLRRQQDNSQHHFMYHIRSATSAKATQTDFLVDTIPASGNVLVTPHPLGDLTYNSSKGSIELALLSVAPSARVAQNPVQVQRAIHPQSLDFSSVSTEADGSGSGEHRVETSSRALVRRTPAPNNSETSQPSSNDSAIEVEAHEEERPSSRRQWEQQGELISPRQWGQHEGMYYFDKRNNRVIEVMGFNISQGRNQSHDTIHNQSINDSQTRLLVHSMSMSHLEAHDHFRSKRTTLGSRMLRFLGPCVRCRNGDPLNRSNVTYKDGLPAMPEEEFVDQRNQR
# B2: DYNC1I1: known LC8 binding partner, literature (protein, UniProt O14576 2-645, looked up)
# Cytoplasmic dynein 1 …: SDKSDLKAELERKKQRLAQIREEKKRKEEERKKKEADMQQKKEPVQDDSDLDRKRRETEALLQSIGISPEPPLVQPLHFLTWDTCYFHYLVPTPMSPSSKSVSTPSEAGSQDSGDLGPLTRTLQWDTDPSVLQLQSDSELGRRLHKLGVSKVTQVDFLPREVVSYSKETQTPLATHQSEEDEEDEEMVESKVGQDSELENQDKKQEVKEAPPRELTEEEKQQILHSEEFLIFFDRTIRVIERALAEDSDIFFDYSGRELEEKDGDVQAGANLSFNRQFYDEHWSKHRVVTCMDWSLQYPELMVASYNNNEDAPHEPDGVALVWNMKFKKTTPEYVFHCQSSVMSVCFARFHPNLVVGGTYSGQIVLWDNRSHRRTPVQRTPLSAAAHTHPVYCVNVVGTQNAHNLITVSTDGKMCSWSLDMLSTPQESMELVYNKSKPVAVTGMAFPTGDVNNFVVGSEEGTVYTACRHGSKAGIGEVFEGHQGPVTGINCHMAVGPIDFSHLFVTSSFDWTVKLWTTKHNKPLYSFEDNADYVYDVMWSPVHPALFACVDGMGRLDLWNLNNDTEVPTASVAIEGASALNRVRWAQAGKEVAVGDSEGRIWVYDVGELAVPHNDEWTRFARTLVEIRANRADSEEEGTVELSA
# B3: ASCIZ: known LC8 binding partner, literature (protein, UniProt O43313 1-823, looked up)
# ATM interactor: MAASEAAAAAGSAALAAGARAVPAATTGAAAAASGPWVPPGPRLRGSRPRPAGATQQPAVPAPPAGELIQPSVSELSRAVRTNILCTVRGCGKILPNSPALNMHLVKSHRLQDGIVNPTIRKDLKTGPKFYCCPIEGCPRGPERPFSQFSLVKQHFMKMHAEKKHKCSKCSNSYGTEWDLKRHAEDCGKTFRCTCGCPYASRTALQSHIYRTGHEIPAEHRDPPSKKRKMENCAQNQKLSNKTIESLNNQPIPRPDTQELEASEIKLEPSFEDSCGSNTDKQTLTTPPRYPQKLLLPKPKVALVKLPVMQFSVMPVFVPTADSSAQPVVLGVDQGSATGAVHLMPLSVGTLILGLDSEACSLKESLPLFKIANPIAGEPISTGVQVNFGKSPSNPLQELGNTCQKNSISSINVQTDLSYASQNFIPSAQWATADSSVSSCSQTDLSFDSQVSLPISVHTQTFLPSSKVTSSIAAQTDAFMDTCFQSGGVSRETQTSGIESPTDDHVQMDQAGMCGDIFESVHSSYNVATGNIISNSLVAETVTHSLLPQNEPKTLNQDIEKSAPIINFSAQNSMLPSQNMTDNQTQTIDLLSDLENILSSNLPAQTLDHRSLLSDTNPGPDTQLPSGPAQNPGIDFDIEEFFSASNIQTQTEESELSTMTTEPVLESLDIETQTDFLLADTSAQSYGCRGNSNFLGLEMFDTQTQTDLNFFLDSSPHLPLGSILKHSSFSVSTDSSDTETQTEGVSTAKNIPALESKVQLNSTETQTMSSGFETLGSLFFTSNETQTAMDDFLLADLAWNTMESQFSSVETQTSAEPHTVSNF
# B4: LCA5: 697 amino acid long protein lebercilin, cellular (protein, UniProt Q86VQ0 1-697, looked up)
# chain: MGERAGSPGTDQERKAGKHHYSYLSDFETPQSSGRSSLVSSSPASVRRKNPKRQTSDGQVHHQAPRKPSPKGLPNRKGVRVGFRSQSLNREPLRKDTDLVTKRILSARLLKINELQNEVSELQVKLAELLKENKSLKRLQYRQEKALNKFEDAENEISQLIFRHNNEITALKERLRKSQEKERATEKRVKDTESELFRTKFSLQKLKEISEARHLPERDDLAKKLVSAELKLDDTERRIKELSKNLELSTNSFQRQLLAERKRAYEAHDENKVLQKEVQRLYHKLKEKERELDIKNIYSNRLPKSSPNKEKELALRKNAACQSDFADLCTKGVQTMEDFKPEEYPLTPETIMCYENKWEEPGHLTLDLQSQKQDRHGEAGILNPIMEREEKFVTDEELHVVKQEVEKLEDEWEREELDKKQKEKASLLEREEKPEWETGRYQLGMYPIQNMDKLQGEEEERLKREMLLAKLNEIDRELQDSRNLKYPVLPLLPDFESKLHSPERSPKTYRFSESSERLFNGHHLQDISFSTPKGEGQNSGNVRSPASPNEFAFGSYVPSFAKTSERSNPFSQKSSFLDFQRNSMEKLSKDGVDLITRKEKKANLMEQLFGASGSSTISSKSSDPNSVASSKGDIDPLNFLPGNKGSRDQEHDEDEGFFLSEGRSFNPNRHRLKHADDKPAVKAADSVEDEIEEVALR
# modifications: full-length
# notes: 697 amino acid long protein lebercilin, cellular
# What was measured:
# LC8 = target: T1, LC8 (Homo sapiens, UniProt Q96FJ2); conditions: literature, ref (6)-(10) of supplement, cited from earlier work; for Number of monomeric LC8 in complex / Number of monomeric binding partners in complex: composition of complexes
# T1 construct: 6xHis (N); made in house; host or cells: E. coli BL21 (DE3) Rosetta
# T1 sequence (Q96FJ2 whole entry): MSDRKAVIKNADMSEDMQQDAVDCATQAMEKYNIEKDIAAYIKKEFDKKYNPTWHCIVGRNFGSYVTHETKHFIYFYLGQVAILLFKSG
# Excerpt: According to the standard model of LC8 interactions, the dimeric interface of LC8 presents two interaction sites for partners which also form dimers, implying a 1:1 stoichiometry. Partners with two adjacent binding motifs, like ANA2, follow a 1:2 stoichiometry by binding two LC8[18]. Intriguingly, we observed a 2:1 LCA5:LC8 stoichiometry for the ΔCQS and the ΔVQT mutants, which means that one LC8 dimer binds four LCA5 chains (Supplementary Table S1). A reasonable interpretation is that the native LCA5 is dimeric and thus a pair of LCA5 dimers bind to one dimeric LC8. In such a situation, one i ... || page 10: Composition of complexes Number of LC8 Number of Ratio of LCA5 LC8 binding monomeric binding monomeric LC8 in monomers to LC8 Gene name sites partners in complex complex monomers SWA (6) 1 2 2 1:1 DYNC1I1 (7) 1 2 2 1:1 WDR34-WDR60 3 1+1 6 1:3 (8) ANA2 (9) 2 2 4 1:2 ASCIZ (10) 11 2 22 1:11 sLCA5-WT 2 4 4 1:1 sLCA5-single 1 4 2 2:1 mutants Supplementary Table S1. Stoichiometries of various LC8 binding partners in complex with LC8. Known LC8 binding partners according to literature data always form dimers upon LC8 binding. The stoichiometry is basically 1:1 in case of one LC8 binding sit ...
# LC8 in hTERT-RPE1 cells = assay: immunofluorescence colocalization of LCA5 and LC8; assay type: cell-based; conditions: for Pearson's correlation coefficient, LCA5 and LC8: Z-stack images, JACoP
# Experimental: hTERT-RPE1 cells were seeded on poly-lysine-coated 21 mm coverslips. After 24 h, cells were serum-starved for an additional 72 h. Cells were washed with DPBS (Lonza) two times and once in cytoskeletal buffer (10 mM PIPES, 100 mM NaCl, 3 mM MgCl2, 300 mM Sucrose, 5 mM EGTA, 0.5% Triton-X 100, pH 6.9)[44]. Subsequently, cells were fixed in a cytoskeletal buffer containing 4% PFA for 10 min at 37 °C. Fixed cells were washed with DPBS and permeabilised for an additional 30 min in 0.5% Triton-X 100 in DPBS and incubated for 1 h in a blocking buffer (2% BSA, 0.1% Triton-X 100 in DPBS) at room temperature. Primary and secondary antibodies were diluted in a blocking buffer. The cells were incubated with rabbit anti-lebercilin 1:200 (Proteintech 19,333-1-AP), goat anti-LC8 1:100 (Invitrogen PA5-47,957), mouse anti-acetylated-α-tubulin 1:15,000 (Sigma Aldrich 5335S) overnight at 4 °C. Finally, cells were treated with secondary antibodies (anti-goat-Alexa Fluor 488 1:800, anti-mouse-CY3 1:800, anti-rabbit-Alexa Fluor 647 1:800 Jackson ImmunoResearch) for 1 h at room temperature. Coverslips were mounted using ProLong Diamond antifade mountant with DAPI (Invitrogen) and imaged with an inverted Zeiss LSM 800, the image processing was completed with Fiji ImageJ software. The calculations of the colocalization were performed using the JACoP plugin of ImageJ software. The Pearson’s coefficient and the Manders coefficients were calculated on Z-stack images of primary cilia and centrosomes of hTERT-RPE1 cells using manual thresholds. For the statistical analysis of the colocalization a randomization based Costes method was used.
# [1] = centrosome, late interphase hTERT-RPE1 cells
# [2] = ciliary basal body, ciliated hTERT-RPE1 cells
Molecule,Number of monomeric LC8 in complex (LC8),Number of monomeric binding partners in complex (LC8),LC8 binding sites (LC8),thresholded Manders LC8 to LCA5 tM2 (LC8 in hTERT-RPE1 cells; [1]),thresholded Manders LCA5 to LC8 tM1 (LC8 in hTERT-RPE1 cells; [1]),"Pearson's correlation coefficient, LCA5 and LC8 (LC8 in hTERT-RPE1 cells; [1])",thresholded Manders LC8 to LCA5 tM2 (LC8 in hTERT-RPE1 cells; [2]),thresholded Manders LCA5 to LC8 tM1 (LC8 in hTERT-RPE1 cells; [2]),"Pearson's correlation coefficient, LCA5 and LC8 (LC8 in hTERT-RPE1 cells; [2])"
B1,2,2,1,–,–,–,–,–,–
B2,2,2,1,–,–,–,–,–,–
B3,22,2,11,–,–,–,–,–,–
B4,–,–,–,0.574,0.929,0.802,0.718,0.671,0.715
